How the values were obtained:
[1] = tested on: Venus-thrombin-LUMP (LUMP fused to Venus via an 11-residue linker ASLVPRGSRGS that harbors a thrombin cleavage site)
[2] = tested on: mRuby-thrombin-fLov2 (fLov2 fused to mRuby via an 11-residue linker ASLVPRGSRGS that harbors a thrombin cleavage site)

Substance: thrombin protease
- FA value of LUMP in the intact substrate [1]: FA values for the 51-kDa LUMP-Venus substrate of 0.255±0.003
- FA value of LUMP in the proteolyzed sensor [1]: decreases to 0.166±0.001 in the proteolyzed sensor
- donor/acceptor ratio of fluorescence emission during proteolysis [1]: donor/acceptor ratio increasing ~4.7-fold
- fluorescence emission spectra against time after addition of thrombin [2]: dramatic increase in fLov2 fluorescence and attenuation of the sensitized mRuby fluorescence

From patent publication US20160146827
